Results published in patent publication US20200317768A1 (published 2020).
Changes are numbered by the printed parent chain.

T1: human FcγRIIaR extracellular domain with C-terminal His-tag (human, UniProt P12318 34-217)
T1 construct: also called human FcgRIIaR; FcγRIIa (type R)
T1 chain: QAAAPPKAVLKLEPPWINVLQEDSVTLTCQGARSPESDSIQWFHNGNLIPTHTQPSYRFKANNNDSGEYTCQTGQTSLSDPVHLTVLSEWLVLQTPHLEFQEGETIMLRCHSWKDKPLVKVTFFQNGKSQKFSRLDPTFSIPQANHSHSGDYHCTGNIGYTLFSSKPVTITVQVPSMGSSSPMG

T2: human FcγRIIb extracellular domain with C-terminal His-tag (human, UniProt P31994 43-217)
T2 construct: also called human FcgRIIb
T2 sequence: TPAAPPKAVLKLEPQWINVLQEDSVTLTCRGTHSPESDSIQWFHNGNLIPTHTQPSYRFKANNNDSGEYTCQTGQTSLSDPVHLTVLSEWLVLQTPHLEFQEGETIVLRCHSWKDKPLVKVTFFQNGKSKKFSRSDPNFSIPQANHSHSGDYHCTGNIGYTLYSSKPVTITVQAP

T3: cynomolgus monkey FcγRIIa2 extracellular domain with C-terminal His-tag (cynomolgus monkey)
T3 construct: also called cyno FcgRIIa2; cynoFcγRIIa2
T3 chain: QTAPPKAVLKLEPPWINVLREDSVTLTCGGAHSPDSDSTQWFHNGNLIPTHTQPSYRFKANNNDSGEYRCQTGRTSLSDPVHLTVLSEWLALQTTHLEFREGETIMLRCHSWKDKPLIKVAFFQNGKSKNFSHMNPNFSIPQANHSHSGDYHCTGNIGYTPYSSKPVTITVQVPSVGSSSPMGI

T4: human FcγRIIaH extracellular domain with C-terminal His-tag (human, UniProt P12318 34-217)
T4 construct: also called human FcgRIIaH; FcγRIIa (type H)
T4 sequence: T1 chain with R134H

T5: cynomolgus monkey FcγRIIIaS extracellular domain with C-terminal His-tag (cynomolgus monkey, UniProt Q8SPW2 21-206 at identity 1.00))
T5 construct: also called cyno FcgRIIIaS; cynoFcγRIIIaS
T5 chain: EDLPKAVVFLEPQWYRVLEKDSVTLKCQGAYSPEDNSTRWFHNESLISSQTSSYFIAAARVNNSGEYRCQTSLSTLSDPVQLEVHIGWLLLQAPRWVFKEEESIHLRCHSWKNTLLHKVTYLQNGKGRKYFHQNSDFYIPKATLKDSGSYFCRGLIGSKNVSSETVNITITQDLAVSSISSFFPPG

T6: cynomolgus monkey FcγRIIa1 extracellular domain with C-terminal His-tag (cynomolgus monkey)
T6 construct: also called cyno FcgRIIa1; cynoFcγRIIa1
T6 chain: T3 chain with T95P, A121T, K127I, S128A, N130K, N135D, Q142R

T7: cynomolgus monkey FcγRIIb extracellular domain with C-terminal His-tag (cynomolgus monkey)
T7 construct: also called cyno FcgRIIb; cynoFcγRIIb
T7 chain: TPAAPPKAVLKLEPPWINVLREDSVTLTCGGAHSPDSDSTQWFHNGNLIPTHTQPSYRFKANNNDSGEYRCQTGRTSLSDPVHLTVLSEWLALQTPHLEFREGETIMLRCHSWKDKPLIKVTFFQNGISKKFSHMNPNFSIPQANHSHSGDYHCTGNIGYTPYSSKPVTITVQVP

B1: M103205H795-MY528/M103202L889-SK1 (antibody, human IgG1, kappa)
heavy: QVTLKESGPVLVKPTETLTLTCTVSGIDLSHDDISWVRQAPGKGLEWVGIISYAGSTYYASWAKGRLTISKDTSKNQVVLTMTNMDPVDTATYYCARGVPAYSHGGDLWGQGTLVTVSSASTKGPSVFPLAPSSKSTSGGTAALGCLVKDYFPEPVTVSWNSGALTSGVHTFPAVLQSSGLYSLSSVVTVPSSSLGTQTYICNVNHKPSNTKVDKKVEPKSCDKTHTCPPCPAPEWLTGPSVFLFPPKPKDTLMISRTPEVTCVVVDVSDEDPEVKFNWYVDGVEVHNAKTKPREEQYNSTYRVVSVLTVLHQDWLNGKEYKCKVSNKALPKPIEKTISKAKGQPREPQVYTLPPSREEMTKNQVSLTCLVKGFYPSDIAVEWESNGQPENNYKTTPPVLDSDGSFFLYSKLTVDKSRWQQGNVFSCSVMHEALHNHYTQKSLSLSP
light: DIVMTQSPATLSLSPGERATLSCTSSQSVYHANWLSWFQQKPGQPPKLLIYWASTLAYGVPSRFSGSGSGTDFTLTISSLQPEDAATYYCAGGYGGGRYAFGQGTKVEIKRTVAAPSVFIFPPSDEQLKSGTASVVCLLNNFYPREAKVQWKVDNALQSGNSQESVTEQDSKDSTYSLSSTLTLSKADYEKHKVYACEVTHQGLSSPVTKSFNRGEC
notes: Substitutions introduced into M103205H795-SG1, expressed with M103202L889-SK1 as light chain; EU numbering
B2: M103205H795-MY532/M103202L889-SK1 (antibody, human IgG1, kappa)
heavy: B1 heavy with S241V
light: B1 light
notes: as for B1
B3: M103205H795-MY531/M103202L889-SK1 (antibody, human IgG1, kappa)
heavy: B1 heavy with K328T
light: B1 light
notes: as for B1
B4: M103205H795-MY530/M103202L889-SK1 (antibody, human IgG1, kappa)
heavy: B1 heavy with W236L, K328T
light: B1 light
notes: as for B1
B5: M103205H795-MY529/M103202L889-SK1 (antibody, human IgG1, kappa)
heavy: B1 heavy with Q297L
light: B1 light
notes: as for B1

Target: T1, human FcγRIIaR extracellular domain …
Experiment: SPR (BIACORE); KD of SG1 / KD of variant;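 further: relative to parent M103205H795-SG1 carrying the SG1 human heavy chain constant region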

| KD fold (SG1 = 1) [fold] | Binder |
| --- | --- |
| 2 | B1 |
| 3.8 | B2 |
| 2.7 | B3 |
| 4.1 | B4 |
| 2.1 | B5 |

Each binder was assayed against T8, human FcγRIIIaV extracellular domain with C-terminal His-tag (human, UniProt P08637 17-208) (assay: SPR (BIACORE); KD of SG1 / KD of variant;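 further: relative to parent M103205H795-SG1 carrying the SG1 human heavy chain constant region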).
T8 construct: also called human FcgRIIIaV
T8 sequence (P08637 17-208 F176V): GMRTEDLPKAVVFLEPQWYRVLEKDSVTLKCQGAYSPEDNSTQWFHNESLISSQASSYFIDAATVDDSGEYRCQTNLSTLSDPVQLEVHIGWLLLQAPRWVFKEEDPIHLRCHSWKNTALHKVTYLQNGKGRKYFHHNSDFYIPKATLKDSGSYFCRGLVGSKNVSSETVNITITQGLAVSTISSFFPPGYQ

| KD fold (SG1 = 1) [fold] | Binder |
| --- | --- |
| 0.19 | B1 |
| 0.43 | B2 |
| 0.25 | B3 |
| 0.23 | B4 |
| 0.2 | B5 |

Each binder was assayed against T2, human FcγRIIb extracellular domain with … (assay: SPR (BIACORE); KD of SG1 / KD of variant;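 further: relative to parent M103205H795-SG1 carrying the SG1 human heavy chain constant region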).

| KD fold (SG1 = 1) [fold] | Binder |
| --- | --- |
| 2.1 | B1 |
| 5.5 | B2 |
| 3.2 | B3 |
| 2.5 | B4 |
| 3.3 | B5 |

Target: T3, cynomolgus monkey FcγRIIa2 …
Experiment: SPR (BIACORE); KD of SG1 / KD of variant;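 further: relative to parent M103205H795-SG1 carrying the SG1 human heavy chain constant region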

| KD fold (SG1 = 1) [fold] | Binder |
| --- | --- |
| 3.4 | B1 |
| 8.5 | B2 |
| 3.5 | B3 |
| 4.6 | B4 |
| 3.6 | B5 |

These binders were tested against T4, human FcγRIIaH extracellular domain … (assay: SPR (BIACORE); KD of SG1 / KD of variant).

| KD fold (SG1 = 1) [fold] | Binder |
| --- | --- |
| 2 | B1 |
| 3.3 | B2 |
| 2.4 | B3 |
| 4.1 | B4 |
| 3 | B5 |

Target: T5, cynomolgus monkey FcγRIIIaS …
Experiment: SPR (BIACORE); KD of SG1 / KD of variant

| KD fold (SG1 = 1) [fold] | Binder |
| --- | --- |
| 0.15 | B1 |
| 0.42 | B2 |
| 0.36 | B3 |
| 0.42 | B4 |
| 0.16 | B5 |

Target: T6, cynomolgus monkey FcγRIIa1 …
Experiment: SPR (BIACORE); KD of SG1 / KD of variant

| KD fold (SG1 = 1) [fold] | Binder |
| --- | --- |
| 2.3 | B1 |
| 4.2 | B2 |
| 2.9 | B3 |
| 2.3 | B4 |
| 3.2 | B5 |

Target: T7, cynomolgus monkey FcγRIIb extracellular …
Experiment: SPR (BIACORE); KD of SG1 / KD of variant

| KD fold (SG1 = 1) [fold] | Binder |
| --- | --- |
| 4.4 | B1 |
| 7.8 | B2 |
| 6.7 | B3 |
| 5.6 | B4 |
| 6 | B5 |
